Assay results taken from PMC2810336, “Mutational Analysis of Highly Conserved Residues in the Phage PhiC31 Integrase Reveals Key Amino Acids Necessary for the DNA Recombination”.
Residue numbers refer to the chain shown, from its start.

Legend:
phiC31 integrase WT = target: T1, phiC31 integrase WT (Streptomyces phage phiC31, UniProt Q38194 1-613); assay: EMSA; complexes I, II, III; 50 ng/ul Poly (competitor (so in the source)), 0.05% NP-40, 50 mM KCl, 5 mM MgCl2, 10 mM EDTA, 20 ul, 0.4 ng (16 fmol) probe; 30 min at room temperature (Methods) or 30 C; pH not stated; synapsis 2 h at 30 C; settings: protein: recombinant; tags: C-terminal His (pET22b); chain copies: 2; label: biotin, double-strand end-labeled; blunt
T1 sequence: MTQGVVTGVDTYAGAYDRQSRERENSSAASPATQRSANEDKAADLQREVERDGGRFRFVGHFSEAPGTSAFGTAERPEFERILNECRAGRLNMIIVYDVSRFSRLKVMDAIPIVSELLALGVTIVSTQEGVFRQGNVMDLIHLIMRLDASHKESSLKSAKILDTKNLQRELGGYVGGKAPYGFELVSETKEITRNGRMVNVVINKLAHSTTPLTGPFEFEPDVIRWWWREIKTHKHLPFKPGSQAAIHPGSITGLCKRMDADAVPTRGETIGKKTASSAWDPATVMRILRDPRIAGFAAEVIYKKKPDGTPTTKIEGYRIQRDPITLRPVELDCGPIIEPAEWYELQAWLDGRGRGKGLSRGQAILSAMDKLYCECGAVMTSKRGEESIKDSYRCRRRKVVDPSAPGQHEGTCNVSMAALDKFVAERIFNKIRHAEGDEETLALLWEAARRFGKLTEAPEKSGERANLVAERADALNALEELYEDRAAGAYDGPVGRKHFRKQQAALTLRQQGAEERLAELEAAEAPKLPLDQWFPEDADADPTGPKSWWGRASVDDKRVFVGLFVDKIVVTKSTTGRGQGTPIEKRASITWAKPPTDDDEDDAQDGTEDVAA

[1] = target: T2, phiC31 integrase G182A/F183A (Streptomyces phage phiC31, UniProt Q38194 1-613, G182A;F183A); assay: EMSA; 50 ng/ul Poly (competitor (so in the source)), 0.05% NP-40, 50 mM KCl, 5 mM MgCl2, 10 mM EDTA, 20 ul, 0.4 ng (16 fmol) probe; 30 min at room temperature (Methods) or 30 C; pH not stated; synapsis 2 h at 30 C; settings: protein: recombinant; tags: C-terminal His; chain copies: 2; label: biotin, double-strand end-labeled; blunt
T2 sequence: T1 sequence with G182A, F183A

phiC31 integrase C374A = target: T3, phiC31 integrase C374A (Streptomyces phage phiC31, UniProt Q38194 1-613, C374A); assay: as above; settings: protein: recombinant; tags: C-terminal His; chain copies: 2; label: biotin, double-strand end-labeled; blunt
T3 sequence: T1 sequence with C374A

B1: attP 50 bp (dsDNA)
DNA 1: GTAGTGCCCCAACTGGGGTAACCTTTGAGTTCTCTCAGTTGGGGGCGTAG
DNA 2: CTACGCCCCCAACTGAGAGAACTCAAAGGTTACCCCAGTTGGGGCACTAC
binding result (phiC31 integrase WT): binds | binding result [1]: no binding | binding result (phiC31 integrase C374A): no binding
